Reference: patent publication US20210261663A1 (JIANGSU HENGRUI MEDICINE, published 2021)

Target: T1, human TIM-3 full-length, overexpressed on CHO-S cells (human, UniProt Q8TDQ0 22-301)
T1 construct: also called HAVCR2; Tim-3 overexpressing CHO-S cells
Assay: cell-based ELISA on fixed CHO-S cells overexpressing full-length human TIM-3, HRP secondary antibody, OD450

- EC50 (read off the curve): ~0.1 nM
B1: ABTim-3 (antibody, V domains shown)
VH: QVQLQQPGAELVKPGASVKMSCKASGYTFTSYNMHWIKQTPGQGLEWIGDIYPGNGDTSYNQKFKGKATLTADKSSSTVYMQLSSLTSEDSAVYYCARVGGAFPMDYWGQGTSVTVSS
VL: DIVLTQSPASLAVSLGQRATISCRASESVEYYGTSLMQWYQQKPGQPPKLLIYAASNVESGVPARFSGSGSGTDFSLNIHPVEEDDIAIYFCQQSRKDPSTFGGGTKLEIK
